Measured values taken from PMC4655273, “Schwann Cell Expressed Nogo-B Modulates Axonal Branching of Adult Sensory Neurons Through the Nogo-B Receptor NgBR” (Frontiers in Cellular Neuroscience, 2015).

Molecular target: T1, Nogo-B (mouse (endogenous in primary Schwann …, UniProt Q99P72-5 1-356))
T1 sequence (looked up): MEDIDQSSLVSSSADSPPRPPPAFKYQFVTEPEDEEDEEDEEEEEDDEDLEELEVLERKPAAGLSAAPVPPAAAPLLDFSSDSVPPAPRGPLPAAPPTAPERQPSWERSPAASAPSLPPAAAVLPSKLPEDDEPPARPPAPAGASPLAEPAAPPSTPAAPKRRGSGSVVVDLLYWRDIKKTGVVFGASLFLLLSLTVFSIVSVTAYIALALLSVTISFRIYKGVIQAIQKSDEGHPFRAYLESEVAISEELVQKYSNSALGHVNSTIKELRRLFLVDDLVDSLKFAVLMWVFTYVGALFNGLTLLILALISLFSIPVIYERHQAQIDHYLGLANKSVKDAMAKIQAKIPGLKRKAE
Assay: cell-based or functional assay

B1: Nogo-B receptor NgBR (receptor, mouse (endogenous in sensory neurons), UniProt Q99LJ8 1-297, looked up)
chain: MTGLYELVWRVLHALLCLHLTLTSWLRVRFGTWNWIWRRCCRAASAAVLAPLGFTLRKPRAVGRNRRHHRHPHGGPGPGPGPAATHPRLRWRADVRSLQKLPVHMGLLVTEEVQEPSFSDIASLVVWCMAVGISYISVYDHQGIFKRNNSRLMDEILKQQQELLGQDCSKYSAEFANSNDKDDQDLNCPSAVKVLSPEDGKADIVRAAQDFCQLVAQQQRKPTDLDVDLLGSLLSSHGFPDPDLVLKFGPVDSTLGFLPWQIRLTEIVSLPSHLNISYEDFFSALRQYAACEQRLGK
- total neurite length (TNL) of adult wildtype sensory neurons on wildtype Schwann cells with recombinant NgBR-Ecto at 1 μg/ml, relative to control (set to 1.0): 0.74 relative to the control levels
